Results reported in paper PMC8816346 (Science Advances, 2022).

Molecular target: TOPBP1, purified recombinant (human, UniProt Q92547 1-1522)
Assay: pull-down

Sequence of TOPBP1, purified recombinant (Q92547 whole entry): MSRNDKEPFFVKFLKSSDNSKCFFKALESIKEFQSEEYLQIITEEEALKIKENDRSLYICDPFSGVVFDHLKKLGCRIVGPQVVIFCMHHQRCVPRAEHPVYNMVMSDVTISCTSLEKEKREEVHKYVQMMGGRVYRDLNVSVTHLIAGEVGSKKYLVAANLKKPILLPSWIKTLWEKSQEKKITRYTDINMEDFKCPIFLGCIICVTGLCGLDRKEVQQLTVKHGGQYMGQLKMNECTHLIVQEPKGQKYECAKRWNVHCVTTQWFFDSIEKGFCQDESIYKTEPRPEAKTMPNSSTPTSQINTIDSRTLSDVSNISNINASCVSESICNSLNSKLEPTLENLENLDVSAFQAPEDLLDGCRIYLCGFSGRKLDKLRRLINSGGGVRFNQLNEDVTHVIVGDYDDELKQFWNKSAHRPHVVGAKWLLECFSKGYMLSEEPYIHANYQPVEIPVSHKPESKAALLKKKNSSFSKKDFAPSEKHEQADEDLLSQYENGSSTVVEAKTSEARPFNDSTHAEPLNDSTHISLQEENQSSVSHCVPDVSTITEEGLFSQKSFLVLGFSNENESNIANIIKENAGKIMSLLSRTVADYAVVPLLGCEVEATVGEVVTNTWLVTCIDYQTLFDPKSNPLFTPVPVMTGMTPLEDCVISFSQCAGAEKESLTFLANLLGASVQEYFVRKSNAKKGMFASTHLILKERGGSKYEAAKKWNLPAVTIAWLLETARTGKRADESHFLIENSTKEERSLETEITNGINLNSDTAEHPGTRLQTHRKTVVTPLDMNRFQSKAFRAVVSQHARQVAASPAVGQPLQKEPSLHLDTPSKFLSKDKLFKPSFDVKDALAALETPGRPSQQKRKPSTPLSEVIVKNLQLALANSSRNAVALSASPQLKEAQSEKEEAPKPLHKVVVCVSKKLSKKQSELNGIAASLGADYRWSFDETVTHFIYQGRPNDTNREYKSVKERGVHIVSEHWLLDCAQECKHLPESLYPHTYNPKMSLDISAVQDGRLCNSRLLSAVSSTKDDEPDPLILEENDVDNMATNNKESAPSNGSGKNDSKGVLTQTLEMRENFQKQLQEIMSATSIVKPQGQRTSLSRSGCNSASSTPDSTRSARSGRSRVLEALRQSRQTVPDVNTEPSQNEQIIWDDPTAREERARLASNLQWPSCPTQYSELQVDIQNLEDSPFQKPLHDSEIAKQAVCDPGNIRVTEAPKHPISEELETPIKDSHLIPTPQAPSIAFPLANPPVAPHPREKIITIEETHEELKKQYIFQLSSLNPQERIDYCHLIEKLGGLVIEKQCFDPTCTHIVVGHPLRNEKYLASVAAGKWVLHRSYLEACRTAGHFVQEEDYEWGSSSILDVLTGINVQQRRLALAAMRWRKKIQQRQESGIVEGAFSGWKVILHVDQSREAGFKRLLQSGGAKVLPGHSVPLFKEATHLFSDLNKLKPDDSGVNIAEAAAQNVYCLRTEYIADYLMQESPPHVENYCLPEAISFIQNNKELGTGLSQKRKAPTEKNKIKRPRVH

B1: BLM^λ (BLM^P dephosphorylated with λ-phosphatase) (natural protein)
chain: not shown
binding result: binds
